Data: US20220396632A1 (VERSEAU THERAPEUTICS, published 2022)
Non-standard residues stand in square brackets, D forms with d. No end group written: not given here. *: point of attachment. Biotin = O=C1N[C@H]2[C@H](CS[C@H]2CCCCC(=O)*)N1; sY = N[C@@H](Cc1ccc(OS(=O)(=O)O)cc1)C(=O)O

T1: SulfoTyr C4 peptide (not fully specified; Y4, Y7 and Y9 sulfated (SO3); C-terminal biotin)
T1 construct: also called C4 alpha chain peptide; human sulfotyrosinylated C4 peptide
T1 peptide: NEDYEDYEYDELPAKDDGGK

T2: Sulfotyr fibrinogen γ peptide (not fully specified; Y8 and Y12 sulfated (SO3); C-terminal biotin)
T2 construct: also called Fibrinogen gamma peptide; human sulfotyrosinylated fibrinogen peptide
T2 peptide: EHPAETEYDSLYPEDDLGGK

T3: Recombinant human PSGL-1(ECD)-hFc1 (R&D Systems, Cat. 3345-PS) (human, UniProt Q14242 42-305)
T3 construct: Bought; Gln42-Val295 counted on AAC50061; also called PSGL-1-Fc; PSGL-1-hFc1 chimera; not shown: human IgG1 Fc, Pro100-Lys330
T3 sequence: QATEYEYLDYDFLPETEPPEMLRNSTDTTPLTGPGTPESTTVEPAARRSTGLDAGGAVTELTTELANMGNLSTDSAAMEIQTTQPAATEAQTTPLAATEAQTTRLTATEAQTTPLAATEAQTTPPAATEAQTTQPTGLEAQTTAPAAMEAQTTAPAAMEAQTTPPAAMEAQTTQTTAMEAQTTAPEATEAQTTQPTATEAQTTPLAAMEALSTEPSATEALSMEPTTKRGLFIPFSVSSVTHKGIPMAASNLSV

T4: Human fibrinogen protein (ThermoFisher, RP-43142) (human, UniProt P02671 20-629; P02675 31-491; P02679 27-453, limits assumed, natural sulfotyrosines)
T4 construct: mature; Native dimer with 3 pairs of non-identical chains; also called gamma-fibrinogen; γ fibrinogen protein
T4 sequence (looked up) 1: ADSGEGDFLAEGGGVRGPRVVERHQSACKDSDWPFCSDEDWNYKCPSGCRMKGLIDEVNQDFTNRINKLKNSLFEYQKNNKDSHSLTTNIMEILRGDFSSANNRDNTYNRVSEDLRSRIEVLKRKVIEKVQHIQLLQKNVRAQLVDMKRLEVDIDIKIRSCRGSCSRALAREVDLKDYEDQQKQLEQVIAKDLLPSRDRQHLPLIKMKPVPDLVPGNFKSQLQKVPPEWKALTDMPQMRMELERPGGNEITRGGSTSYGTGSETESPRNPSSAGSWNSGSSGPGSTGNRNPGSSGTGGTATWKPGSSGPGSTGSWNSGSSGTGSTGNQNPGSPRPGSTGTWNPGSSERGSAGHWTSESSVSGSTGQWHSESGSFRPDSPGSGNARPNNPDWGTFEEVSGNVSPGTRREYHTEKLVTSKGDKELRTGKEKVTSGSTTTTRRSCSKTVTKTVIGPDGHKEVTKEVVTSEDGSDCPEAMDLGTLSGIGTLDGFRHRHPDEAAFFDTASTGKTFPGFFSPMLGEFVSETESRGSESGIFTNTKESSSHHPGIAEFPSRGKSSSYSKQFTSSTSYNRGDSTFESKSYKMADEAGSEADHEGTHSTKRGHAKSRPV
T4 sequence (looked up) 2: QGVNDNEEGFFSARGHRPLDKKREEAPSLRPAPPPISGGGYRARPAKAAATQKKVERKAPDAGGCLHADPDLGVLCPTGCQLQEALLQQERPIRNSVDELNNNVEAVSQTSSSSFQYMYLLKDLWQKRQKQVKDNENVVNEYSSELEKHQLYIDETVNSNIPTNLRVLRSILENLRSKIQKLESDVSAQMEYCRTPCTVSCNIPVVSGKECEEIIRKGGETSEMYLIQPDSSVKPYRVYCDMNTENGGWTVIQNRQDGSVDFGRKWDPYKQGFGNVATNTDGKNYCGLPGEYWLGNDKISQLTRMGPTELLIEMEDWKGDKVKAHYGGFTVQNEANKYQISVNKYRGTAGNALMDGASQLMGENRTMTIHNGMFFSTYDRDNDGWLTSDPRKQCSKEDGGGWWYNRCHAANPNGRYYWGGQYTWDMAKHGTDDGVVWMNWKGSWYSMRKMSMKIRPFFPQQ
T4 sequence (looked up) 3: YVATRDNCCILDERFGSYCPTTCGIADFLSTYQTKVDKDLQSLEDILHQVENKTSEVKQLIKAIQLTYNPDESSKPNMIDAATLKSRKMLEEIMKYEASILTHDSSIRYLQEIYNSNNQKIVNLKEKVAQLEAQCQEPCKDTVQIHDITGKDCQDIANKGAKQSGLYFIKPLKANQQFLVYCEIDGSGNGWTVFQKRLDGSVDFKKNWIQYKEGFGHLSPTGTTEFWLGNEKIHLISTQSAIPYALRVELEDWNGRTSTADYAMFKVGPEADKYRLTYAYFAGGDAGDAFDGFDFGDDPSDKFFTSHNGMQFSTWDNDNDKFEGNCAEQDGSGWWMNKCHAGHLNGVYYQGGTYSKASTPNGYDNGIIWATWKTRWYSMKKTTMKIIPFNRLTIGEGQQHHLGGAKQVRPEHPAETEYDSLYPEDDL

T5: SulfoCCK biotin peptide (human)
T5 construct: also called sulfotyrosine CCK peptide
T5 peptide: SHRISDRD[sY]MGWMDFGGK(Biotin)

T6: Sulfotyrosine CCR2b biotin peptide (human)
T6 construct: also called CCR2b peptide
T6 peptide: TTFFD[sY]D[sY]GAPSHGGK(Biotin)

T7: Sulfotyrosine D6 biotin peptide (human)
T7 construct: also called D6 peptide
T7 peptide: ENSSFY[sY][sY]D[sY]LDEVAFGGK(Biotin)

B1: 03D07 (antibody, IgG4, V domains shown)
VH: EVKLLESGGGLVQPGGSLRLSCAASGFTFSSYALSWVRQAPGKGLEWVSAISGSGGNTYYADSVKGRFTISRDNSKNTLYLQMNSLRAEDTAVYYCAKVVGATNYWGQGTLVTVSS
VL: DIVMTQTPLSLPVTLGQPASISCRSSQSLVYSDGHTYLSWFHQRPGQSPRRLIYKVSIRDSGVPDRFSGSGSGTDFTLKISRVEAEDVGVYYCMQRLQIPLTFGGGTKVEIK
B2: 10F01 (antibody, IgG4, V domains shown)
VH: EVQLVQSGGGLVQPGGSLRLSCAASGFTFSSYAMSWVRQAPGKGLEWVSALRGGDGGTYHADSVKGRFTISGDSSKNTLYLQMNSLRAEDTAVYYCARRMVGAAYAFDIWGQGTMVTVSS
VL: LPVLTQPHSVSESPGKTVTISCTRSSGSIADNFVQWYRQRPGSAPTTVIYEGDQRPSGVPGRFSGSIDSSSNSASLTISGLQTDDEADYYCQSFDSYNRRTHVVFGGGTKLTVL
B3: 05D01 (antibody, V domains shown)
VH: QVTLRESGGALVQPGGSLRLSCAASGFPLRSNAMTWVRQAPGKGLEWVSDIRGNGASTYYADSVKGRFTISRDDSNNILFLQMNSLRAEDTAVYYCVGHGSSSYWGQGTLVTVSS
VL: DVVMTQSPLSLPVTLGQPASISCRSSQSLVYRDGNIYLNWFQQRPGQSPRRLIYKVSNRDSGVPDRFSGSGSGTDFTLKISRVEAEDVGVYYCMQLTHWPPGFAQGTKLEIK
B4: 20I15 (antibody, V domains shown)
VH: EVKLVESGGGLVQPGGSLSLSCAASGFTFTDYYMSWVRQPPGKALEWLGFIRNKANGYTTEYSASVKGRFTISRDNSQSILYLQMNALRAEDSATYYCARTYLRRGYFDVWGTGTTVTVSS
VL: DIVLTQSPASLAVSLGQRATISCRASKSVSTSGYSYMHWFQQKPGQPPKLLIYLASNLESGVPARFSGSGSGTDFTLNIHPVEEEDAATYYCQHSRELPLTFGAGTKLELK
notes: From mouse immunisation; only variable domains given; also called 20115
B5: 11D10 (antibody, IgG4, V domains shown)
VH: EVKLLESGGGLVQPGGSLRLSCAVSGFTFSTSAMIWVRQAPGKGLEWVSFISGSTSNTYYADSVKGRFTISRDNSKNTLYLQMNGLTAEDTAVYYCARGTAAATWGQGALVTVSS
VL: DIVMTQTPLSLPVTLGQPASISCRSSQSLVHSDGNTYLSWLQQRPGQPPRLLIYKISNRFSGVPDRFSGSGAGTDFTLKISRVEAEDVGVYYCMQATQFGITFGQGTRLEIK
B6: 09D04 (antibody, IgG4, V domains shown)
VH: QVQLQQSGGGLVQPGGSLTLSCVGSGFDFRSYAMSWVRQAPGKGLEWVSGINNSGSKTYYADFVKGRFSVSRDNSKNIVWLRMRSLRAEDTAVYYCARRTFGPPHAWGQGTMVTVSS
VL: DVVMTQSPLSLPVTPGEPASISCRSSQSLLHSNGYTYLEWYLHKPGQSPQLLIYLGSNRASGVPDRFSGSGSGTDFTLKISRVEAEDVGVYYCMHSLHIPFTFGPGTKVDIK
B7: 05H03 (antibody, IgG4, V domains shown)
VH: B6 VH
VL: DIVMTQSPLSLSVTPGEPASISCRSSQSLLHSNGYKYLDWYLQKPGQSPQLLIYMGSNRASGVPDRFSGSGSGTDFTLKISRVEAEDVGVYYCMQGLQSPLTFGGGTKVEIE
B8: 09A08 (antibody, IgG4, V domains shown)
VH: QVQLVQSGAAVKKPGESLKISCKGSGYTFSNYWIGWVRQMPGKGLEWMGIIYPGDSDTRYSPSFQGQVTISADKSISTAYLQWSSLKASDTAMYYCARHIVGPPKSAFDIWGQGTMVTVSS
VL: DIVMTQTPLSLPVTLGQPASISCSSSQGLQKRDGNTYLNWFQQRPGQSPRRLIYKVSNRDSGVPDRFSGSGSGTDFTLKISRVEAEDVGVYYCMQGTHWPWTFGQGTRVEIK

Molecular target: T1, SulfoTyr C4 peptide
Test: ELISA, 50 nM mAb
Procedure: (§1) Recombinant PSGL-1-hFc1 chimera protein consisting of PSGL-1's extracellular domain (ECD) served as a positive control. […] Primary antibody was added (25 ul per well) in duplicate at 50 nM in assay buffer (blocking buffer containing 0.05% Tween®20) into test and control (just blocked) wells and the plate incubated for 45 min at 37° C.

Binder	binding normalized to PSGL-1
B1	0.71
B2	0.17
B3	0.11
B4	0.34
B5	0.07
B6	0.4
B7	0.49
B8	0.54

Molecular target: T2, Sulfotyr fibrinogen γ peptide
Test: ELISA, 50 nM mAb
Procedure: as §1

Binder	binding normalized to PSGL-1
B1	0.49
B2	0.06
B3	0.89
B4	0.37
B5	0.26
B6	0.49
B7	0.68
B8	0.14

Molecular target: T3, Recombinant human PSGL-1(ECD)-hFc1 (R&D …)
Test: ELISA, 50 nM mAb
Procedure: as §1

Binder	A450nm
B1	2.25 A450nm
B2	2.1 A450nm
B3	2.33 A450nm
B4	2.45 A450nm
B5	2.38 A450nm
B6	2.66 A450nm
B7	2.58 A450nm
B8	2.49 A450nm

Molecular target: T8, Human complement C4 protein (Millipore Sigma, Cat. 204886) (human, UniProt P0C0L4 20-675; P0C0L4 680-1446; P0C0L4 1454-1744, limits assumed, natural sulfotyrosines)
T8 construct: mature
Test: ELISA, 50 nM mAb
Procedure: as §1

T8 sequence (P0C0L4 20-675 limits assumed, form in doubt, chain 1 of 3): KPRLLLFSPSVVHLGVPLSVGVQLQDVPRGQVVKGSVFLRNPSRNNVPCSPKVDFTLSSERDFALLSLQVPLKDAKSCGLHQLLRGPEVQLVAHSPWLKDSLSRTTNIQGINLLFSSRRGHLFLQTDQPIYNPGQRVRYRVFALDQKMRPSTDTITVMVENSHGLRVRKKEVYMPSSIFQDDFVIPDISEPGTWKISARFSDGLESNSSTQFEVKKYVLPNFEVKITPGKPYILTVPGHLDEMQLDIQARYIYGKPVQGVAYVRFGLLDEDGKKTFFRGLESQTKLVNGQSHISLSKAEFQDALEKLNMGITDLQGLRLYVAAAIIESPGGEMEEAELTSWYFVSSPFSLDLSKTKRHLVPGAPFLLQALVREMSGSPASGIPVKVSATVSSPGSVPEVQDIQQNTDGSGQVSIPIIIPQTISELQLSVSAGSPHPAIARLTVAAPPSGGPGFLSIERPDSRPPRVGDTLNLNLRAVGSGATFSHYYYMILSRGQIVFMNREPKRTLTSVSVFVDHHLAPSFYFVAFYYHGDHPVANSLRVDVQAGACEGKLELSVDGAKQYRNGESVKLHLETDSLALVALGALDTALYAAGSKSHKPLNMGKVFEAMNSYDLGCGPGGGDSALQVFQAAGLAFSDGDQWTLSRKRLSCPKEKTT
T8 sequence (P0C0L4 680-1446 limits assumed, form in doubt, chain 2 of 3): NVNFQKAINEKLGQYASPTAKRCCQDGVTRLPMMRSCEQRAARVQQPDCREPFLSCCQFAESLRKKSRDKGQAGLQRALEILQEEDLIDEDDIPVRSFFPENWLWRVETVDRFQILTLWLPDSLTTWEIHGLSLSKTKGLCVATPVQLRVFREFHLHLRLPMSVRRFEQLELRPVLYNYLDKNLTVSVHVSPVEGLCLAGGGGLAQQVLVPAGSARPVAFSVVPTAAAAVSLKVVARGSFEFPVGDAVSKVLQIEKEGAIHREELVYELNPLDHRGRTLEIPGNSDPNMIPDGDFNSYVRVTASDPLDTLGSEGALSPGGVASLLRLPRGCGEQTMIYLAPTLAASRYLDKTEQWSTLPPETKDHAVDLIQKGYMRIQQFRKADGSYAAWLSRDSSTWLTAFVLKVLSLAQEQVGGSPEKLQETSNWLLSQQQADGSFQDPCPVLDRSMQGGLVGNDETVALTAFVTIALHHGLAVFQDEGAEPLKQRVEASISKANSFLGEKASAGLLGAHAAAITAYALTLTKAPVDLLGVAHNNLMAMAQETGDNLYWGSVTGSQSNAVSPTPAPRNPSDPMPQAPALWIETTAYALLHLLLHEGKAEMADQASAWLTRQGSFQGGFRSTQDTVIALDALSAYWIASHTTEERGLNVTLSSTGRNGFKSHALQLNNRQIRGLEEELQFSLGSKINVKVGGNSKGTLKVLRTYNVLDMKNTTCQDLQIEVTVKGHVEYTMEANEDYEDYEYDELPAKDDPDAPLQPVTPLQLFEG
T8 sequence (P0C0L4 1454-1744 limits assumed, form in doubt, chain 3 of 3): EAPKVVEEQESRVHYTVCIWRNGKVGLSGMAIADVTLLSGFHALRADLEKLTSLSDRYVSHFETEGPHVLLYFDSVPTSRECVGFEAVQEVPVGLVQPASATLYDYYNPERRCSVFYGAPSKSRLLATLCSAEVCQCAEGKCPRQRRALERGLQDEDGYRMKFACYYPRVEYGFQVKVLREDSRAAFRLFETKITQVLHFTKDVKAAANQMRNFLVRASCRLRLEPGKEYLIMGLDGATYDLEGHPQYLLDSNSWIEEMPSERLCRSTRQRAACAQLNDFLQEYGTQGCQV

Binder	binding normalized to PSGL-1
B1	0.53
B2	0.06
B3	0.08
B4	0.09
B5	0.09
B6	0.61
B7	0.58
B8	0.22

Molecular target: T4, Human fibrinogen protein (ThermoFisher, …)
Test: ELISA, 50 nM mAb
Procedure: as §1

Binder	binding normalized to PSGL-1	binding result
B1	0.06	–
B2	0.01	no binding (tested: 50 nM)
B3	0.07	–
B4	0.06	–
B5	0.03	–
B6	0.25	–
B7	0.29	–
B8	0.05	–

Molecular target: T5, SulfoCCK biotin peptide
Test: ELISA, 50 nM mAb
Procedure: as §1

Binder	binding normalized to PSGL-1
B1	0.08
B2	0.03
B3	0.3
B5	0.05
B6	0.53
B7	0.74
B8	0.08

Molecular target: T6, Sulfotyrosine CCR2b biotin peptide
Test: ELISA, 50 nM mAb
Procedure: as §1

Binder	binding normalized to PSGL-1
B1	0.16
B2	0.03
B3	0.17
B4	0.21
B5	0.04
B6	0.37
B7	0.45
B8	0.08

Molecular target: T7, Sulfotyrosine D6 biotin peptide
Test: ELISA, 50 nM mAb
Procedure: as §1

Binder	binding normalized to PSGL-1
B1	0.28
B2	0.04
B3	0.84
B4	0.35
B5	0.08
B6	0.75
B7	0.8
B8	0.6
